Data taken from article doi:10.1101/2021.02.26.432832 (bioRxiv, 2021).

Target: recombinant, reconstituted histone H3/H4 tetramers (Xenopus laevis, UniProt P84233;P62799)
Experiment: pull-down

binding result: binds
B1: GST-tagged full-length Ioc4 (natural protein)
chain: MSEAIFQPTDIVLAKVKGFSAWPAMIIPNELIPDNILKTKPVSVHKGKSGSDKKANEDIDADMESEARDREQSEEEEDIEDFGESEANPEKFIIYTPVLKFRKNDTLKSTYCVKFFCDDSYIWVKPMDMKILTSEDCRKWLSGKQRKNKKLIPAYEMAMRGKNGIDIWEFVEYGSYGKPDEEEYVEEEEEENEPEKKAIRPTRSSSRQRQKRASETEKSEGGNSNKRKRVTRSTRQQAIDASEEEEEEEEEKVQEAVRKRPQRTKTKKVVVSKTKPNPKTKAKKEKPKPPKPIKYHFEDDEDWSIVGLGPQDLSIEKTMDPIAKKLSQKKNLEKHVEIKLDLEDKLAGINKLLCDVLCSAINQAVSIKDDFEIILDELQIALDTRGSRNEFITIFQSNNSLLLNFRILFNLRKRELNKWDLWDRFQDIFKHIYSYQFIPDTEDWQLEQNMEIEEMDREKPSFSEDVKEEESKVGA
